Data from patent US20170020909A1, “METHODS OF TREATING GLAUCOMA USING AMP-ACTIVATED PROTEIN KINASE (AMPK) ACTIVATORS” (Massachusetts Eye and Ear Infirmary, priority 2014, published 2017).

Tested on: AMPKα
Experiment: Time course immunoblot of p-AMPKα (Thr172)/total AMPKα in primary human TM cell lysates
Assay type: cell-based
Protocol: Primary human trabecular meshwork (TM) cells were isolated, in accordance with the Declaration of Helsinki, and maintained in culture as described previously.^63 Independent primary human TM cell lines were generated from donors ranging in age from 35 to 72 years and no known history of ocular disease. Cell cultures were maintained, unless otherwise stated, in Dulbecco's modified eagle medium (Life Technologies, Grand Island, N.Y.) containing 20% fetal bovine serum, 1% L-glutamine (2 mM), and gentamicin (0.1 mg/ml) at 37° C. in a 10% CO2 atmosphere. Only TM cells from third through fifth passage were used. All experiments were performed using at least three different primary human TM cell lines.
At the conclusion of each experiment for matricellular and ECM protein detection, conditioned media (CM) from TM cell cultures was harvested and centrifuged at 5000 rpm for 10 minutes at 4° C. The supernatant was then concentrated (Amicon Ultra-4 Filter Unit, 10 kDa; Millipore, Milford, Mass.), and protein content quantified using the DC Protein Assay kit adhering to manufacturer's protocols (Bio-Rad, Hercules, Calif.). For AMPK protein detection, cells were lysed for 3 minutes on ice with cold 1×RIPA buffer containing 0.5% Aprotinin, 0.1% EDTA, 1% EGTA, 0.5% PMSF, and 0.01% Leupeptin. Samples were then centrifuged at 14,000 rpm for 15 minutes at 4° C. and protein content quantified. In all experiments, equal amounts of protein were treated with 6× reducing buffer and boiled for 5 minutes. Samples were then electrophoresed in 10% SDS-polyacrylamide gels, alongside a pre-stained protein marker (Cell Signaling Technology Inc., Danvers, Ma). For conditioned media loading control, the resultant gels were stained with 0.1% Coomassie Brilliant Blue G-250 (Bio-Rad, Hercules Calif.) for 3 hours and were destained with fixing/destaining solution until clear bands were visible and contrasted well with the true blue background. Otherwise, proteins were transferred to nitrocellulose membranes (0.45-μm pore size; Invitrogen). […] The membranes were then washed three times with 1×TBS-T, scanned, and integrated band intensities were calculated using an infrared imaging system (Odyssey; Li-Cor, Lincoln, Nebr.). […]

B1: TGF-β2: activated transforming growth factor-β2 (R&D Systems) used to stimulate TM cells (protein, UniProt P61812 303-414, looked up)
Transforming growth factor …: ALDAAYCFRNVQDNCCLRPLYIDFKRDLGWKWIHEPKGYNANFCAGACPYLWSSDTQHSRVLSLYNTINPEASASPCCVSQDLEPLTILYYIGKTPKIEQLSNMIVKSCKCS
phospho-total AMPK ratio difference vs zero time point (2.5 ng/mL TGF-β2, at 30 minutes): no longer significant | decrease of phospho-total AMPK ratio, normalized to the zero time point (2.5 ng/mL TGF-β2, within 15 minutes, human TM cells): 30%
